Data from CN115093478A.

Molecular target: 天然CHIKV-E2蛋白 (Chikungunya virus (Ross株))

B1: 2A2-E10(HRP) (antibody, V domains shown)
VH: EVQLVESGGGLVQPKGSLKLSCAASGFTHNTYNMNWVRQAPGKGLEWVARIRSGSNMYATYYADSVKDRFTISRDDSQSILYLQMNNLKTEDTVMYYCERPDYSGSSYFDYWGQGTTLTVSS
VL: DIQLTQPPSYLAASPGETITINCRASKSYSKYCLAWYQEKPGKTNKLLIYSGSTLQSGIPSRFSGSGSGTDFTLTISSLEPEDFAMYYCQQGNMYPYTFGGGTKLEIK
- DAS-ELISA检测灵敏度: 1e+06 PFU/mL
